Laboratory results from patent US20040110287A1, “Multi-step method for the differentiation of insulin positive, glucose responsive cells” (ES Cell International Pte Ltd., priority 2002, published 2004).

Test system: pdx1+ cells
Experiment: Expansion of pdx1+ cells in non-adherent clusters of human pancreatic duct cells
Type: cell-based
Protocol: Pancreatic duct cells were isolated from human donor tissue, using the methods described in detail in Example 2. The cells were plated as non-adherent cell clusters in DMEM-F12 (pH 7.4), 2 mM glutamine, 1% penicillin-streptomycin, 2% B27 (Life Sciences Technologies) and 8 mM HEPES. Following 1-4 days in culture, the media was changed to DMEM-F12 (pH 6.9-7.1), 2 mM glutamine, 1% penicillin-streptomycin, and 2% B27 (Life Sciences Technologies). This media was supplemented with the following four factors: dexamethasone (10^−7-10^−9 M), forskolin (10 μM), insulin (20 μg/ml) and FGF-18 (20 ng/ml). The media was optionally supplemented with heparin which is often used to enhance the effects of FGF. The cells were cultured for a number of days in this supplemented media which was changed daily.
Following approximately one day in culture, Pdx1+ cells (a marker of pancreatic progenitor cells) began appearing on the surface of the non-adherent clusters. The size and number of Pdx1+ cells continues to increase for approximately 12 days. Following 8 to 12 days in culture under expansion conditions, non-adherent cell clusters containing an increased number of Pdx1+ cells were subjected to a differentiation protocol to produce insulin+, glucose responsive cell clusters.
This effect on pdx1 expression was further augmented if the follistatin-related factor follistatin or a combination of follistatin and the GLP-1 agonist exendin-4 was added to the above list of factors used to supplement the acidic culture medium. Briefly, cultures expanded in forskolin (a cAMP elevating agent), dexamethasone (a corticosteroid), insulin, FGF18 (a FGF family member), heparin (known to potentiate the activity of FGF family members), and follistatin (a follistatin-related factor) contained approximately 281 fold more pdx1+ cells than cells differentiated in the absence of the expansion protocol. […]

B1: follistatin (protein, UniProt P19883 30-344, looked up)
Follistatin: GNCWLRQAKNGRCQVLYKTELSKEECCSTGRLSTSWTEEDVNDNTLFKWMIFNGGAPNCIPCKETCENVDCGPGKKCRMNKKNKPRCVCAPDCSNITWKGPVCGLDGKTYRNECALLKARCKEQPELEVQYQGRCKKTCRDVFCPGSSTCVVDQTNNAYCVTCNRICPEPASSEQYLCGNDGVTYSSACHLRKATCLLGRSIGLAYEGKCIKAKSCEDIQCTGGKKCLWDFKVGRGRCSLCDELCPDSKSDEPVCASDNATYASECAMKEAACSSGVLLEVKHSGSCNSISEDTEEEEEDEDQDYSFPISSILEW
- fold more pdx1+ cells than cells differentiated in the absence of the expansion protocol (4 days basal medium, 4 days acidic expansion medium, before differentiation): approximately 281 fold
- fold increase in total islet equivalents (IEs) versus multistep differentiation protocol alone (FIG. 5): 281 fold
- pdx1 expression versus expansion medium alone (FIG. 6 and FIG. 7, added to expansion medium): increase in pdx1 expression
